Publication PMC7817830

Key:
[1] = target: Flag-tagged WT PKM2 expressed in 32D BCR-ABL cells (UniProt P14618); experiment: SEC; cell lysate of 32D BCR-ABL cells on Superdex 200 10/300GL, 50 mM phosphate, 0.15 M NaCl, pH 7.2; fractions by UV absorbance and western blot
[2] = target: recombinant His-tagged PKM2 after the in vitro SUMOylation reaction (SUMO1 conjugated at K270) (UniProt P14618); experiment: SEC; samples of the in vitro SUMOylation reaction (recombinant PKM2 or PKM1 with or without purified SUMO1, E1 and E2); UV absorbance and western blot of the fractions with anti-PKM2 or anti-PKM1; tetramer, dimer, monomer by molecular weight

Flag-tagged WT PKM2 expressed in 32D BCR-ABL cells, P14618 1-531 (enzyme; other documents disagree on this pair), sequence (P14618 whole entry): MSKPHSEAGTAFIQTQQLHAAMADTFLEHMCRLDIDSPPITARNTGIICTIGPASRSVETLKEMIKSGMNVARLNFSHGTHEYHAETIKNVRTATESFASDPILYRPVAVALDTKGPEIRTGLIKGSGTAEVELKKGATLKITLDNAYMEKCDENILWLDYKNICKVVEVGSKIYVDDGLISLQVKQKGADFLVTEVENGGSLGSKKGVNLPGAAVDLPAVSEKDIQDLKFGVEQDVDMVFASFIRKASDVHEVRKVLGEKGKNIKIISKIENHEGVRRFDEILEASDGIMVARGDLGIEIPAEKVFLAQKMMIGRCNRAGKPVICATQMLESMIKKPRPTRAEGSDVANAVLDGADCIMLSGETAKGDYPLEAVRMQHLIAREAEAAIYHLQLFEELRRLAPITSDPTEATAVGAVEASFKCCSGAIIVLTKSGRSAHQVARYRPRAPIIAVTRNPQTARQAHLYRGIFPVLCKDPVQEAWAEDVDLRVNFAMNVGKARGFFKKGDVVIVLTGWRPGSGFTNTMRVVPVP
recombinant His-tagged PKM2 after the in vitro SUMOylation reaction (SUMO1 conjugated at K270) (from UniProt P14618 1-531; P63165 1-97) (enzyme), sequence (P14618 whole entry): as above
recombinant His-tagged PKM2 after the in vitro SUMOylation reaction (SUMO1 conjugated at K270) (from UniProt P14618 1-531; P63165 1-97) (enzyme), sequence (P63165 1-97): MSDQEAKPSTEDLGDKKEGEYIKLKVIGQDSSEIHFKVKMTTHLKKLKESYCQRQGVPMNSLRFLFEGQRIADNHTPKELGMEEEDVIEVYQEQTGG

| Substance | stoichiometry N [1] | stoichiometry N [2] |
| --- | --- | --- |
| Flag-tagged WT PKM2 expressed in 32D BCR-ABL cells, P14618 1-531 (enzyme; other documents disagree on this pair) | 2 |  |
| recombinant His-tagged PKM2 after the in vitro SUMOylation reaction (SUMO1 conjugated at K270) (from UniProt P14618 1-531; P63165 1-97) (enzyme) |  | 2 |
